± gives the standard deviation of the averaged measurements.
Assay: total protein half-life in vivo (active degradation + dilution); higher = more stable protein
[1] = E. coli NCM3722 delta-clpP delta-lon delta-hslV, growth: N-lim chemostat, doubling time 6 h
[2] = E. coli NCM3722 delta-clpP, growth: N-lim chemostat, doubling time 6 h
[3] = E. coli NCM3722 delta-hslV, growth: N-lim chemostat, doubling time 6 h
[4] = E. coli NCM3722 delta-lon, growth: N-lim chemostat, doubling time 6 h
[5] = E. coli NCM3722 delta-smpB, growth: N-lim chemostat, doubling time 6 h
[6] = wild type E. coli NCM3722, growth: C-lim chemostat, doubling time 3 h
[7] = wild type E. coli NCM3722, growth: C-lim chemostat, doubling time 6 h
[8] = wild type E. coli NCM3722, growth: C-lim chemostat, doubling time 12 h
[9] = wild type E. coli NCM3722, growth: N-lim chemostat, doubling time 6 h
[10] = wild type E. coli NCM3722, growth: N-lim chemostat, doubling time 12 h
[11] = wild type E. coli NCM3722, growth: P-lim chemostat, doubling time 6 h
[12] = wild type E. coli NCM3722, growth: P-lim chemostat, doubling time 12 h

Sequence | total protein half-life in vivo [1] [h] | total protein half-life in vivo [2] [h] | total protein half-life in vivo [3] [h] | total protein half-life in vivo [4] [h] | total protein half-life in vivo [5] [h] | total protein half-life in vivo [6] [h] | total protein half-life in vivo [7] [h] | total protein half-life in vivo [8] [h] | total protein half-life in vivo [9] [h] | total protein half-life in vivo [10] [h] | total protein half-life in vivo [11] [h] | total protein half-life in vivo [12] [h]
MSQEYIEDKEVTLTKLSSGRRLLEALLILIVLFAVWLMAALLSFNPSDPSWSQTAWHEPIHNLGGMPGAWLADTLFFIFGVMAYTIPVIIVGGCWFAWRHQSSDEYIDYFAVSLRIIGVLALILTSCGLAAINADDIWYFASGGVIGSLLSTTLQPLLHSSGGTIALLCVWAAGLTLFTGWSWVTIAEKLGGWILNILTFASNRTRRDDTWVDEDEYEDDEEYEDENHGKQHESRRARILRGALARRKRLAEKFINPMGRQTDAALFSGKRMDDDEEITYTARGVAADPDDVLFSGNRATQPEYDEYDPLLNGAPITEPVAVAAAATTATQSWAAPVEPVTQTPPVASVDVPPAQPTVAWQPVPGPQTGEPVIAPAPEGYPQQSQYAQPAVQYNEPLQQPVQPQQPYYAPAAEQPAQQPYYAPAPEQPVAGNAWQAEEQQSTFAPQSTYQTEQTYQQPAAQEPLYQQPQPVEQQPVVEPEPVVEETKPARPPLYYFEEVEEKRAREREQLAAWYQPIPEPVKEPEPIKSSLKAPSVAAVPPVEAAAAVSPLASGVKKATLATGAAATVAAPVFSLANSGGPRPQVKEGIGPQLPRPKRIRVPTRRELASYGIKLPSQRAAEEKAREAQRNQYDSGDQYNDDEIDAMQQDELARQFAQTQQQRYGEQYQHDVPVNAEDADAAAEAELARQFAQTQQQRYSGEQPAGANPFSLDDFEFSPMKALLDDGPHEPLFTPIVEPVQQPQQPVAPQQQYQQPQQPVPPQPQYQQPQQPVAPQPQYQQPQQPVAPQQQYQQPQQPVAPQQQYQQPQQPVAPQPQDTLLHPLLMRNGDSRPLHKPTTPLPSLDLLTPPPSEVEPVDTFALEQMARLVEARLADFRIKADVVNYSPGPVITRFELNLAPGVKAARISNLSRDLARSLSTVAVRVVEVIPGKPYVGLELPNKKRQTVYLREVLDNAKFRDNPSPLTVVLGKDIAGEPVVADLAKMPHLLVAGTTGSGKSVGVNAMILSMLYKAQPEDVRFIMIDPKMLELSVYEGIPHLLTEVVTDMKDAANALRWCVNEMERRYKLMSALGVRNLAGYNEKIAEADRMMRPIPDPYWKPGDSMDAQHPVLKKEPYIVVLVDEFADLMMTVGKKVEELIARLAQKARAAGIHLVLATQRPSVDVITGLIKANIPTRIAFTVSSKIDSRTILDQAGAESLLGMGDMLYSGPNSTLPVRVHGAFVRDQEVHAVVQDWKARGRPQYVDGITSDSESEGGAGGFDGAEELDPLFDQAVQFVTEKRKASISGVQRQFRIGYNRAARIIEQMEAQGIVSEQGHNGNREVLAPPPFD | 3.531 ± 0.015 | 2.17 ± 0.29 | 1.2 ± 0.38 | 1.48 ± 0.059 | 0.895 ± 0.031 | 0.891 ± 0.042 | 1.36 ± 0.11 | 1.76 ± 0.29 | 1.39 ± 0.31 | 1.57 ± 0.13 | 1.48 ± 0.15 | 2.78 ± 1
MSQFFYIHPDNPQQRLINQAVEIVRKGGVIVYPTDSGYALGCKIEDKNAMERICRIRQLPDGHNFTLMCRDLSELSTYSFVDNVAFRLMKNNTPGNYTFILKGTKEVPRRLLQEKRKTIGMRVPSNPIAQALLEALGEPMLSTSLMLPGSEFTESDPEEIKDRLEKQVDLIIHGGYLGQKPTTVIDLTDDTPVVVREGVGDVKPFL [P0AFR4] | 5.38 ± 0.1 |  | 6.202 ± 0.062 | 6.96 ± 1.2 | 6.51 ± 0.8 | 3.1 ± 0.11 | 6.18 ± 1.4 | 12.2 ± 1.1 | 5.38 ± 0.017 | 14.4 ± 1.2 | 4.64 ± 0.17 | 12.9 ± 1.6
MSQLPGLSRETRESIAMYHLRVPQTEEELERYYQFRWEMLRKPLHQPKGSERDAWDAMAHHQMVVDEQGNLVAVGRLYINADNEASIRFMAVHPDVQDKGLGTLMAMTLESVARQEGVKRVTCSAREDAVEFFAKLGFVNQGEITTPTTTPIRHFLMIKPVATLDDILHRGDWCAQLQQAWYEHIPLSEKMGVRIQQYTGQKFITTMPETGNQNPHHTLFAGSLFSLATLTGWGLIWLMLRERHLGGTIILADAHIRYSKPISGKPHAVADLGALSGDLDRLARGRKARVQMQVEIFGDETPGAVFEGTYIVLPAKPFGPYEEGGNEEE [P0ADQ2] | 5.56 ± 0.43 | 4.46 ± 0.32 | 5.1 ± 0.92 | 4.93 ± 0.26 | 4.38 ± 0.27 | 2.8559 ± 0.0026 | 5.57 ± 0.27 | 9.83 ± 0.3 | 4.71 ± 0.12 | 8.84 ± 1.4 | 5.88 ± 0.23 | 11.8 ± 0.52
MSQLVYFSSSSENTQRFIERLGLPAVRIPLNERERIQVDEPYILIVPSYGGGGTAGAVPRQVIRFLNDEHNRALLRGVIASGNRNFGEAYGRAGDVIARKCGVPWLYRFELMGTQSDIENVRKGVTEFWQRQPQNA [P0A772] | 4.46 ± 0.33 |  |  |  |  |  |  |  |  |  |  | 
MSQPITRENFDEWMIPVYAPAPFIPVRGEGSRLWDQQGKEYIDFAGGIAVNALGHAHPELREALNEQASKFWHTGNGYTNEPVLRLAKKLIDATFADRVFFCNSGAEANEAALKLARKFAHDRYGSHKSGIVAFKNAFHGRTLFTVSAGGQPAYSQDFAPLPADIRHAAYNDINSASALIDDSTCAVIVEPIQGEGGVVPASNAFLQGLRELCNRHNALLIFDEVQTGVGRTGELYAYMHYGVTPDLLTTAKALGGGFPVGALLATEECARVMTVGTHGTTYGGNPLASAVAGKVLELINTPEMLNGVKQRHDWFVERLNTINHRYGLFSEVRGLGLLIGCVLNADYAGQAKQISQEAAKAGVMVLIAGGNVVRFAPALNVSEEEVTTGLDRFAAACEHFVSRGSS | 3.59 ± 0.43 | 3.17 ± 0.87 | 2.47 ± 0.25 | 2.97 ± 0.5 | 2.79 ± 0.15 | 3.106 ± 0.012 | 4.44 ± 0.17 | 7.4513 ± 0.0042 | 2.67 ± 0.12 | 3.532 ± 0.018 | 5.09 ± 0.52 | 9.766 ± 0.073
MSQQVIIFDTTLRDGEQALQASLSVKEKLQIALALERMGVDVMEVGFPVSSPGDFESVQTIARQVKNSRVCALARCVEKDIDVAAESLKVAEAFRIHTFIATSPMHIATKLRSTLDEVIERAIYMVKRARNYTDDVEFSCEDAGRTPIADLARVVEAAINAGATTINIPDTVGYTMPFEFAGIISGLYERVPNIDKAIISVHTHDDLGLAVGNSLAAVHAGARQVEGAMNGIGERAGNCSLEEVIMAIKVRKDILNVHTAINHQEIWRTSQLVSQICNMPIPANKAIVGSGAFAHSSGIHQDGVLKNRENYEIMTPESIGLNQIQLNLTSRSGRAAVKHRMDEMGYKESEYNLDNLYDAFLKLADKKGQVFDYDLEALAFIGKQQEEPEHFRLDYFSVQSGSNDIATAAVKLACGEEVKAEAANGNGPVDAVYQAINRITEYNVELVKYSLTAKGHGKDALGQVDIVANYNGRRFHGVGLATDIVESSAKAMVHVLNNIWRAAEVEKELQRKAQHNENNKETV | 4.72 ± 0.57 | 4.48 ± 0.55 | 1.61 ± 0.08 | 1.77 ± 0.1 | 1.492 ± 0.0018 | 2.21 ± 0.067 | 3.71 ± 0.24 | 4.45 ± 0.23 | 1.63 ± 0.16 | 1.92 ± 0.043 | 3.83 ± 0.44 | 6.6 ± 0.52

From the supplement of paper PMC11246515
